Test [1] has as its target HIV-1 Env gp140 89.6 (HIV-1 isolate 89.6) (UniProt Q73372). As to the kind of experiment: ELISA on coated gp140 89.6 and SPR (Biacore X100, single-cycle, bivalent model). Background: ELISA stands for enzyme-linked immunosorbent assay.
Test [2] shares this target. The test is described as follows: ELISA, gp140 89.6 coated at 2 µg/ml, detection with HRP goat anti-human IgG (Fab-specific).
Test [3] shares this target. As to the kind of experiment: SPR, Biacore X100, single-cycle, analytes at 0.1-1,000 nM on gp140 89.6, bivalent binding model. In general terms: In SPR one partner is held on a chip, and binding of the other changes the refractive index at the surface.

Broadly, the EC50 (read off the curve) is the concentration giving half of the maximal effect. Lower therefore signals greater potency. One may read the koff as a measure of how fast the partners let go of each other. Broadly, the kon is a measure of how fast the partners come together.

Substance “MD13 (MD mutant with S64E/S66V in CH1 and S69L/T71S in CK)” displayed a fold higher affinity than MD in test [1] of 1000 fold. This substance showed a concentration for a half-maximal effect (EC50 (read off the curve)) in test [2] of 1 to 10 nM. In test [3], the Kd amounted to 17 nM, the dissociation rate constant (koff) is 0.00081 s⁻¹ and the kon was determined as 47000 M⁻¹ s⁻¹.

As to “MD (mD1.22-CH1/m36.4-CK heterodimer, wild-type CH1-CK)”, in test [3], the Kd stood at 16000 nM, the koff was determined as 0.077 s⁻¹ and the kon turned out to be 4800 M⁻¹ s⁻¹.
